Source: the DeepSol protein solubility set

Assay: soluble on expression in E. coli; label from the status in PepcDB or PDB records

For “MVEMAATGYPVLILKEGTQRTYGREALRANILAARVLAEMLKSSLGPRGLDKMLVDAFGDITVTNDGATIVKEMEIQHPAAKLLVEVAKAQDAEVGDGTTSVVVLAGALLEKAEKLLDENLHPTIIIEGYTKAMEEALRLVDEAAVPVEVEDDSVLRRIAETTLASKFVGTGPERDKIISMVIDAIRTVAEKRPDGGYEVDLDYVKIEKKKGGSLLDSKLVRGIVLDKEVVHPAMPKRVENAKILVLDAPLEVQKPELTTKIRVTDIEKLESFLEEETRMLRDMVEKIAATGANVVITQKGIDEVAQHFLAKKGILAVRRVKRSDIEKVAKATGAKIVTSLRDLKPEYLGYAELVEERKVGEDKMVFIEGAKNPKSVTILLRGANDMLLDEAERNIKDALHGLRNILREPKIVGGGGAVEVELALKLKEFARTVGGKQQLAIEAYAEALETIPTVLAESAGMDALEALLKLRSLHSQGYKFAGVNVLEGKIEEDMTKINVYEPVLVKKQVIKSASEAAISILKIDDVIAAAPPKKKEKKGKTGEEEEEEGGGSKFEF”, which “soluble on expression in E. coli” value is on record?
The value was “soluble”.

With “MAETVGERPESMSPKLDNATIAAQLGSLATALDEFNRNSGSQVEMSLLLQRVCDQVVDAIADADMAGISLLRDGRVVTVAYTDEAVREIDIPNFQALDGDYFGVAGTRKVVKARLGEAAARWPSVADNLDQAGMRSFLSAPLAVDEALAGTLNIYGQGDHGFSELDAVVLLVYTTAIEGLLRSARSVELARNEVSGLTKAMKSRAVIEQAKGIVMALRGVPADQAFEILVAQSQQEHVKLAEVARRIVESVTTNPE” as the sequence, how does the “soluble on expression in E. coli” value read?
The value was “not soluble”.

Which “soluble on expression in E. coli” value does the source give for “MGSDKIHHHHHHMKAYAFGFPKIGEKREFKKALEDFWKGKITEEQFEEEMNKLRMYMVENYRKNVDVIPSNELSYYDFVLDTAVMVGAVPERFGEYRGLSTYFDMARGGKALEMTKFFNTNYHYLVPEIETEEFYLLENKPLEDYLFFKSKGIETAPWVIGPFTFLYLSKRNGEWIRRPNQMEKLLESLVSVYKEVFEKLVENGCKEILVNEPAFVCDLEKAHWDLILNVYRELSEFPLTVFTYYDSVSDYEACVSLPVKRLHFDFVSNEENLKNLEKHGFPEDKKLVAGVINGRQPWKVDLRKVASLVEKLGASAISNSCPLFHLPVTLELENNLPGGLKEKLAFAKEKLEELKMLKDFLEGKTFDLPNVSFEDFAVDLQAVERVRNLPEDSFRREKEYTERDRIQRERLNLPLFPTTTIGSFPQTPEVRKMRSKYRKGEISKEEYEAFIKEQIKKAIELQEEIGLDVLVHGEFERTDMVEFFAEKLNGIATTQNGWVLSYGSRCYRPPIIYGTVTRPEPMTLKEITYAQSLTEKPVKGMLTGPVTIMSWSYYREDIPEREIAYQIALAINEEVKDLEEAGIKIVQIDEPAFREKAPIKKSKWPEYFEWAINAFNLAANARPETQIHAHMCYSDFNEIIEYIHQLEFDVISIEASRSKGEIISAFENFKGWIKQIGVGVWDIHSPAVPSINEMREIVERVLRVLPKELIWINPDCGLKTRNWDEVIPSLRNMVALAKEMREKFES” here?
Its value is “not soluble”.

For “MGHHHHHHGGHMSLITVMNRIGVKPEFAAQFEESFRNRAGLVDGMPGFIRNEVLKPTKPGDPYIVLTYWQDEPSFRAWTESDEFKQGHARSGSLPHDAFTGRPVLEVHDVLLSSDNEGGS”, which “soluble on expression in E. coli” value is on record?
Its value is “soluble”.

With “GSMPHIKGHEGDPCLRSSDCIDGFCCARHFWTKICKPVLHQGEVCTKQRKKGSHGLEIFQRCDCAKGLSCKVWKDATYSSKARLHVCQKI” as the sequence, how does the “soluble on expression in E. coli” value read?
The value was “soluble”.

For “MQFQIGAQGDIADMLTMCNNFPGFEAPMRYMIENSHDVVTVFDGSPAVIVLDELVKADESSYLPFKMKKSYKKVDEIAAKMASEEIHFTIHLSSHSQKNVIQIFQSAYSDGYTEEDKKGKIPEGGRVKCAGTETGARSNVKCEEVAKEVNEYIDSNKDKFGDLKVESLGKADSFMKQKPRRNLFIRVPPLE”, which “soluble on expression in E. coli” value is on record?
Its value is “not soluble”.

For “MGSDKIHHHHHHMIFELPDTTTQQISKTLTRLRESGTQVTTGRVLTLIVVTDSESDVAAVTESTNEASREHPSRVIILVVGDKTAENKVDAEVRIGGDAGASEMIIMHLNGPVADKLQYVVTPLLLPDTPIVAWWPGESPKNPSQDPIGRIAQRRITDALYDRDDALEDRVENYHPGDTDMTWARLTQWRGLVASSLDHPPHSEITSVRLTGASGSTSVDLAAGWLARRLKVPVIREVTDAPTVPTDEFGTPLLAIQRLEIVRTTGSIIITIYDAHTLQVEMPESGNAPSLVAIGRRSESDCLSEELRHMDPDLGYQHALSGLSSVKLETV”, which “soluble on expression in E. coli” value is on record?
The value was “not soluble”.

For “MLKKYTRYSNFRLISQIQFQRHIDIFHAITYDNIDGLVAAFVRNEPFDIKDKNGNTPLHLAAKLNRRLLCRAVCVYAAGLDLWNSKNNDGKTPIEMTDDANIKRDLQSISTSRSSVDSHHMAYNKLLIEKKINENEEQNQNQKVILSLDGGGLRVVLQCAILLAVERELGEPLRNRIHWIAGTSCGGIMASSIGVGIDLADALRLYIIIRKRIFGGNNQKFPKHSALGIETCLQEVMGSKTLMSKCTAHRLVVTTAKVTLAPPQLVLFRSYAPRIDSKEFEQLGYFNPNKILLWKAIRCTTAAPTYFPSFNGMADGALFCNNPCIMVMTEFAKLKKIENYRGKNNTDEIGCVISVGTGIEPSYPINGIDINLTSGLTGITGNWREIIENTKNLITVFLYQCTSSHNVHVGQSREWCHSMQVPFFRFSPHLAAPFELDNCKIEDITNAMFDNEVYIRTEIKQHISDLCRLLKSMPRNTEPCNYSKITGGKGSKVGSPKSDKK”, which “soluble on expression in E. coli” value is on record?
Its value is “not soluble”.

For “MCMSSQSYFKSVMYALVTGGTRGIGRAITEALLKEGYNVAVLYHGSEDKAKELREKGVLTVRCDVGDRNQVKKAKEEISNHFPRLDVLVNNAGIWYLMPFEQFDEEKYERMLRVNLNGTIYVTYEFLSLLKKSSAASIINIASNAGIGTAAEGTTFYAITKAGIIILTRRLAFELGKYGIRVNAVAPGWIETDMTLGNKSDEEKEKLREIFRNKTVLHTTGKPEDIANIVVFLASEKARYITGQVIVADGGRIDNLTHSV”, which “soluble on expression in E. coli” value is on record?
Its value is “soluble”.

With “MLWQQKSFTEQTEQGTLYIVPTPIGNLEDMTFRAVRTLQEADVIAAEDTRQTKKLLAHFGIHTPLVSYHEHNKYASGRQLVEWLKEGKTVALVSDAGMPGISDPGYELIAAALAERCRVVPLPGANAALTALVASGLPTDRFLFVGFLKRAKKEKKEQLLSLKTAAETLIFYEAPHRLKETLALMYDIFGNRRIALGRELTKRFEEFIRGDLSDAVAWAEEHDIRGEFCLIVEGARDGNKQEQEGEEWWQPLSLVEHVDYYIREHSLSVKEAVKQAASDRNMSKRDVYRQYHQQQEEEKKEFL” as the sequence, how does the “soluble on expression in E. coli” value read?
The value was “not soluble”.

Which “soluble on expression in E. coli” value does the source give for “ADLPGKGITVNPVQSTITEETFQTLLVSRALEKLGYTVNKPSEVDYNVGYTSLASGDATFTAVNWTPLHDNMYEAAGGDKKFYREGVFVNGAAQGYLIDKKTADQYKITNIAQLKDPKIAKLFDTNGDGKADLTGCNPGWGCEGAINHQLAAYELTNTVTHNQGNYAAMMADTISRYKEGKPVFYYTWTPYWVSNELKPGKDVVWLQVPFSALPGDKNADTKLPNGANYGFPVSTMHIVANKAWAEKNPAAAKLFAIMQLPVADINAQNAIMHDGKASEGDIQGHVDGWIKAHQQQFDGWVNEALAAQK” here?
The value was “soluble”.

Which “soluble on expression in E. coli” value does the source give for “MKTLQDSIIFRHGAKIKGRIVQPPMLTNSGNDGYVTQDALDYYAARSQSAGMIIVEYTTVSENGGPSRSWARDREQLTIYDDKFKPGMAKLATVIKKMGIKLYYNWSIPVEKLIISLNWVSRFMHQVR” here?
The value was “not soluble”.

With “MGSDKIHHHHHHVILSDWLAARLDRSAAEPVYRQTLRLMQQAILTGQLPPGTKLPSSRTLAQDLGIARNTVLHVYDQLTAEGYVISTTGSGTYVADTRPDTAAVNARKKPVVVSGIETDADAAIETTRRPKRDLGDLSTRGRRLIDTAGVSAKQWGAFMPGVPDVAEFPARTWSRLQARLWKEANPDLLTYAPGGGYRPLRRALSDYLRVARSVNCTPDQIIITTGIHQSIDLAVRLLTDVGDRAWVEEPCYWGARSVLQSSGITLVPVPVDDEGLNPREQDLQQPPRLALVTPSHQYPLGMVMSLARRRTLLEYARQHNVWIIEDDYDSEFRYGSRPLASLQGLDDAGQVIYVGSLGKMLFPGLRIGYMIAPEHLVDTFRTGVAELYREGQLMQQAVMTDFIMDGHLTSHVRRMRALYGERRQILIDAITARFGSELPVMGDEAGLHLVLGLPDHANDRAVTAAAYDAGVIVRPLASYYSGDTPARRGLLLGYACVPNDRIGPAFDTLARVIEQTALKTPTRAA” as the sequence, how does the “soluble on expression in E. coli” value read?
The value was “not soluble”.

Which “soluble on expression in E. coli” value does the source give for “SMITIKFDLNRYSCSWGAGGAFGGNRGLRPIPPEKGIFPLDHLHECDAEKKEYLGCLKSSAHKSEQCRHLSKKYLQCRMAKNLMAKQDMAELGFSGVKELDSTEDKNTESIEH” here?
The value was “soluble”.

With “MAAVPELLEQQEEDRSKLRSVSVDLNVDPSLQIDIPDALSERDKVKFTVHTKTTLSTFQSPEFSVTRQHEDFVWLHDTLTETTDYAGLIIPPAPTKPDFDGPREKMQKLGEGEGSMTKEEFAKMKQELEAEYLAVFKKTVSTHEVFLQRLSSHPVLSKDRNFHVFLEYDQDLSVRRKNTKEMFGGFFKSVVKSADEVLFSGVKEVDDFFEQEKNFLINYYNRIKDSCAKADKMTRSHKNVADDYIHTAACLHSLALEEPTVIKKYLLKVAELFEKLRKVEGRVSSDEDLKLTELLRYYMLNIEAAKDLLYRRTKALIDYENSNKALDKARLKSKDVKLAETHQQECCQKFEQLSESAKEELINFKRKRVAAFRKNLIEMSELEIKHARNNVSLLQSCIDLFKNN” as the sequence, how does the “soluble on expression in E. coli” value read?
The value was “soluble”.

Which “soluble on expression in E. coli” value does the source give for “MGSDKIHHHHHHVMKVLLYSEGKKLFSKSGVGIALKHQMSALDKVGVKYTTNEEDSFDIVHINTIGPGAERVIKKSKKLGIPIIYHTHTTYEDFRNSFTLSNAIAPWLRKRLIKLYSSADFLISPTEYAKKLIMNYGITLPIKAVSNGVDNKKFTRSKSLAESFLSENHIRKPLVVSVGLPFERKGVIDFCQIADTRKDLTFYWFGAKISSLLPAKIRRLLKNPPDNVKFPGFIPQEMIIGPYSACDVFLFPSYEETEGIVVLEALATEAPIVLRDIPVYSEWMKHEENCLKGKDNQEFIKHIDRLLESNNLRKKLSSCGKETALERDLSIIGQKLKNIYLEVLDKKQ” here?
Its value is “not soluble”.

For “VTVSTSTARSADDSDHSSEVARPTDSRRDPEVLREALQRWLAAQLPPDAAPEVTHVHLPDANGMSSETILFDATWSGEVHPLVARVAPADTTMPVFPEYDLDGQFQVMAQVREHSAVPVPVVYWSESDPGPLGAPFFVMARVSGQVPPDVMPYNFGSWVTEATEEQRALLQHSAVNVLAQLHDIDRPWERFAFLQLPGSGPTVTEALAAHIRQQRDYYEWTTLSGPRSPLIERGFAWMEDNLPDDPSPAVFCWGDARIGNMMFEDFRPVAVLDWEMATLGPRELDLGWMTYLHRFFEDIAASAGLDGMPDFLRLDDLAALYEELTGHTPRDLEYYTAYAALRQATIMLRIQERAIHFGQAVAPEDPDDMIMHRASLEAMLDGTYWEKIR”, which “soluble on expression in E. coli” value is on record?
The value was “not soluble”.

For “MGSDKIHHHHHHMNKFNDIIDECDLSFSDWGKNYPRWSSLDAAWWKTFGGDNYLNKYKDGYIVFHREKIKEIARQYKIPSILLASVAHAEAGGMVDYFKYPTLFGRQVVHSYSGWPGKEKILPSPEKTSIGIIAMQIRVVAEIFGKNPSALRNAEATYISICLNKDNFNLTMVARHLYELINYDYPGTDTLNLTDEQFILAGARYNRGVQRSRSDLIRSINAEKDLIEVRDWTSYGRSMLNHREKITKLLYEVTTPPKNSDSN”, which “soluble on expression in E. coli” value is on record?
The value was “not soluble”.
